The series deals with the molecule itself. Put plainly: amyloid aggregation.

Where a chain is given by its changes, count along the chain named. In names and notes the source's numbering stands.

B1: His-SUMO-hnRNPDL isoform 2 D259N (natural protein, human)
chain: MEDMNEYSNIEEFAEGSKINASKNQQDDGKMFIGGLSWDTSKKDLTEYLSRFGEVVDCTIKTDPVTGRSRGFGFVLFKDAASVDKVLELKEHKLDGKLIDPKRAKALKGKEPPKKVFVGGLSPDTSEEQIKEYFGAFGEIENIELPMDTKTNERRGFCFITYTDEEPVKKLLESRYHQIGSGKCEIKVAQPKEVYRQQQQQQKGGRGAAAGGRGGTRGRGRGQGQNWNQGFNNYYDQGYGNYNSAYGGDQNYSGYGGYNYTGYNYGNYGYGQGYADYSGQQSTYGKASRGGGNHQNNYQPY
In the case of B1, the binding result is given as “binds”.

B2: His-SUMO-hnRNPDL isoform 2 D259H (natural protein, human)
chain: B1 chain with N259H
As for B2, the binding result was “binds”.

For the origin of these results see paper PMC6996132 (Cell Reports, 2020).
